Test results published in patent US20070218504A1, “HUMAN LEPTIN-DERIVED POLYPEPTIDES AND USES THEREOF” (UNIVERSITY OF PITTSBURGH, priority 2006, published 2007).

Tests used:
ob/ob mice = experiment: Co-infusion of polypeptide E with human CRP and leptin through mini-osmotic pumps into ob/ob mice; format: in vivo, mouse
Protocol: FIG. 11. […] Infusion dosages for human CRP and leptin were 48 μg/day/mouse and 12 μg/day/mouse, respectively. The infusion rate for Pep-E (P) was 24 μg/day/mouse (medium dosage, “m”) and 48 μg/day/mouse (high dosage, “h”). Food-intake (A and C) and body weight (B and D) were monitored daily throughout the infusion. The arrows in A-D indicate the day of surgery. At the end of infusion, blood samples were collected for the measurement of blood-glucose, human CRP, and human leptin. The serum concentrations of human CRP and human leptin were 0.85±0.1 μg/ml and 18 ng±2 ng/ml, respectively. […] Also shown is glucose concentration from mice infused with human CRP and leptin but not with Pep-E.
In the in vivo experiment, polypeptide E was co-infused through mini-osmotic pumps with human CRP and leptin into the ob/ob mice. Food intake in the period of 24 hours and body weight were followed during the infusion period (FIGS. 11A-11D).

human OB-Rb = target: T1, human OB-Rb (Homo sapiens, UniProt P48357); experiment: 125I-labeled mouse leptin pre-incubated with human CRP, binding to HEK293 cells stably transfected with human OB-Rb; conditions: in the presence of 2 ng/ml mouse leptin
T1 construct: expressed in transfected cells
T1 sequence (P48357 22-1165): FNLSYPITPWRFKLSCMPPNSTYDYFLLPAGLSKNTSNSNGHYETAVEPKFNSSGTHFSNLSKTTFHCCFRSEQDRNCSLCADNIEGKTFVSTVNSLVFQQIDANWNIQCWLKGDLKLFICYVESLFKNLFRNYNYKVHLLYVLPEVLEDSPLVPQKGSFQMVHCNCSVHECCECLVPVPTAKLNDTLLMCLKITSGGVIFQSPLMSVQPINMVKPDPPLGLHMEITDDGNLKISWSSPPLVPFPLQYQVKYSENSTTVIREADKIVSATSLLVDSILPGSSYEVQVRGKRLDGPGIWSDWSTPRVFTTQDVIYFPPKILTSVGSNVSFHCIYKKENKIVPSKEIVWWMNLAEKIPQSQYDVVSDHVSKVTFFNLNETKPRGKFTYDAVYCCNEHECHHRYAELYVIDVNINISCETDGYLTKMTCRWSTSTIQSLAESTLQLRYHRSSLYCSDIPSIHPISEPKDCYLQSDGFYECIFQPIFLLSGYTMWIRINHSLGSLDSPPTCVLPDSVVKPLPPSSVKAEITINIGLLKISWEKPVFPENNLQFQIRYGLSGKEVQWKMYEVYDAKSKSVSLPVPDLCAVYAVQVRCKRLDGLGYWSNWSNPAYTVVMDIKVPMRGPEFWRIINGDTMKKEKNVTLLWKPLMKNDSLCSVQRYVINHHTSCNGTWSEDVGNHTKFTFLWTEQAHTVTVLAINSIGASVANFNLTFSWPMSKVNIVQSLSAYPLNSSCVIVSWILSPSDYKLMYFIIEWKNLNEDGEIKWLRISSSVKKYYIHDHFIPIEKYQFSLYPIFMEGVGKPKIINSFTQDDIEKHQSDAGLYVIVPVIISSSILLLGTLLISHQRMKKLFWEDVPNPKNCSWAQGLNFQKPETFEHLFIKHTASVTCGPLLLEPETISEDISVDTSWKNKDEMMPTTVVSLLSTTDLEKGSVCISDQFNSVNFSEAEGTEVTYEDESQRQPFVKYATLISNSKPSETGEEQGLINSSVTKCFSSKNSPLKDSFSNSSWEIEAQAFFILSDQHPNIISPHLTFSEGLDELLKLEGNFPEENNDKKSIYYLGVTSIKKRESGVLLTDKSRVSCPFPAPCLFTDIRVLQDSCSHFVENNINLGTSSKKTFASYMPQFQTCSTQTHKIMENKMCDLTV
Protocol: FIG. 4B. Effects of human CRP on mouse leptin. […] The dashed line at the bottom right of the graph indicates ^125I-leptin bound when two thousand fold excess of non-labeled mouse leptin is added.
To examine if CRP binding interferes with the stability of human leptin to bind to its receptors, a HEK293 cell line stably transfected with the long-form human leptin receptor, OB—Rb, was used (17). Human leptin was iodinated with Na^125I using the lodogen method. Briefly, 15 μg of recombinant human leptin in 100 mM Phosphate buffer pH 7.5 were incubated with 1 mCi of carrier-free Na^125I (2200 Ci/mmol) in a glass tube containing 50 μg Iodogen. After 10-minute incubation at room temperature, the reaction was stopped with 100 μl 0.1% trifluoroacetic acid (TFA). The reaction mixture was immediately purified by reverse-phase HPLC. The separation employed a 5-minute isocratic step at 20% eluant B in A, followed by two consecutive 30 min linear gradients from 20 to 50%, then from 50 to 60% eluant B in A (where eluant A is water containing 0.1% TFA and eluant B is acetonitrile containing 0.1% TFA) at a flow rate of 1.5 ml/min. The ^125I-labeled leptin (˜2 ng/ml) was pre-incubated with various concentrations of human CRP in 1 ml of μ-MEM for 1 hour before added to the OBR-expressing HEK293 cells. […]

In the case of “human CRP: human C-reactive protein, purified preparation from a commercial source”, the “serum concentration of human CRP” value (ob/ob mice; end of infusion, 48 μg/day/mouse) is reported as 850 ± 100 ng/mL, the “effect of human CRP on satiety and weight-reducing effects of human leptin in the absence of the polypeptide” value (ob/ob mice; human CRP 48 μg/day/mouse, leptin 12 μg/day/mouse) is reported as “able to block the satiety and weight-reducing effects” and the “IC50 of human CRP for reducing 125I-labeled mouse leptin binding to receptor” value (human OB-Rb) is reported as “greater than 64 μg/ml”.
